Laboratory results reported in patent US20090098103A1.

What was measured:
Assay in all cases: cell-based or functional assay
[1] = molecular target: FVIIa variant CB557 K197D (human) (UniProt P08709)
[2] = molecular target: FVIIa variant CB558 K197E (human) (UniProt P08709)
[3] = molecular target: FVIIa variant CB559 K197A (human) (UniProt P08709)
[4] = molecular target: FVIIa variant CB560 K197L (human) (UniProt P08709)
[5] = molecular target: FVIIa variant CB561 K197Y (human) (UniProt P08709)
[6] = molecular target: FVIIa variant CB562 K199D (human) (UniProt P08709)
[7] = molecular target: FVIIa variant CB563 K199E (human) (UniProt P08709)
[8] = molecular target: FVIIa variant CB564 K199A (human) (UniProt P08709)
[9] = molecular target: FVIIa variant CB566 R290D (human) (UniProt P08709)
[10] = molecular target: FVIIa variant CB567 R290E (human) (UniProt P08709)
[11] = molecular target: FVIIa variant CB568 R290A (human) (UniProt P08709)
[12] = molecular target: FVIIa variant CB569 K341R (human) (UniProt P08709)
[13] = molecular target: FVIIa variant CB579 D196R/R290E (human) (UniProt P08709)
[14] = molecular target: FVIIa variant CB581 D196R/R290D (human) (UniProt P08709)
[15] = molecular target: FVIIa variant CB586 D196R/K197E/K199E (human) (UniProt P08709)
[16] = molecular target: FVIIa variant CB590 D196R/K197M/K199E/R290E (human) (UniProt P08709)
[17] = molecular target: FVIIa variant CB591 L305V/S314E/L337A/F374Y (human) (UniProt P08709)
[18] = molecular target: FVIIa variant CB597 K197F (human) (UniProt P08709)
[19] = molecular target: FVIIa variant CB599 K197M (human) (UniProt P08709)
[20] = molecular target: FVIIa variant CB602 D196W (human) (UniProt P08709)
[21] = molecular target: FVIIa variant CB603 D196L (human) (UniProt P08709)
[22] = molecular target: FVIIa variant CB604 D196I (human) (UniProt P08709)
[23] = molecular target: FVIIa variant CB611 D196L/K197L (human) (UniProt P08709)
[24] = molecular target: FVIIa variant CB612 D196F/K197L (human) (UniProt P08709)
[25] = molecular target: FVIIa variant CB614 D196W/K197L (human) (UniProt P08709)
[26] = molecular target: FVIIa variant CB617 D196V/K197E (human) (UniProt P08709)
[27] = molecular target: FVIIa variant CB638 K197L/K341Q (human) (UniProt P08709)
[28] = molecular target: FVIIa variant CB671 K197E/G237V/K341Q (human) (UniProt P08709)
[29] = molecular target: FVIIa variant CB688 K197E/K199E (human) (UniProt P08709)
[30] = molecular target: FVIIa variant CB689 K197E/G237V (human) (UniProt P08709)
[31] = molecular target: FVIIa variant CB696 G237V/M298Q/K341Q (human) (UniProt P08709)
[32] = molecular target: FVIIa variant CB697 R290N (human) (UniProt P08709)
[33] = molecular target: FVIIa variant CB698 R290Q (human) (UniProt P08709)
[34] = molecular target: FVIIa variant CB699 R290K (human) (UniProt P08709)
[35] = molecular target: FVIIa variant CB733 K341N (human) (UniProt P08709)
[36] = molecular target: wild-type Factor VII polypeptide (CB553-02), activated (FVIIa) (human) (UniProt P08709)

Human Recombinant TFPI (R&D Systems) (from UniProt P10646 29-282)
IC50 of TFPI inhibition of FVIIa/TF [1]: 0.22 µM | TFPI fold resistance (fold vs wild-type FVIIa) [1]: 3 | pIC50 of TFPI inhibition of FVIIa/TF [1]: 6.7 | IC50 of TFPI inhibition of FVIIa/TF [2]: 0.31 µM | TFPI fold resistance (fold vs wild-type FVIIa) [2]: 1.3 | pIC50 of TFPI inhibition of FVIIa/TF [2]: 6.5 | IC50 of TFPI inhibition of FVIIa/TF [3]: 0.053 µM | TFPI fold resistance (fold vs wild-type FVIIa) [3]: 0.7 | pIC50 of TFPI inhibition of FVIIa/TF [3]: 7.3 | IC50 of TFPI inhibition of FVIIa/TF [4]: 1.1 µM | TFPI fold resistance (fold vs wild-type FVIIa) [4]: 16 | pIC50 of TFPI inhibition of FVIIa/TF [4]: 5.9 | IC50 of TFPI inhibition of FVIIa/TF [5]: 0.11 µM | TFPI fold resistance (fold vs wild-type FVIIa) [5]: 1.5 | pIC50 of TFPI inhibition of FVIIa/TF [5]: 7 | IC50 of TFPI inhibition of FVIIa/TF [6]: 0.063 µM | TFPI fold resistance (fold vs wild-type FVIIa) [6]: 0.9 | pIC50 of TFPI inhibition of FVIIa/TF [6]: 7.2 | IC50 of TFPI inhibition of FVIIa/TF [7]: 0.033 µM | TFPI fold resistance (fold vs wild-type FVIIa) [7]: 1.3 | pIC50 of TFPI inhibition of FVIIa/TF [7]: 7.5 | IC50 of TFPI inhibition of FVIIa/TF [8]: 0.068 µM | TFPI fold resistance (fold vs wild-type FVIIa) [8]: 0.9 | pIC50 of TFPI inhibition of FVIIa/TF [8]: 7.2 | IC50 of TFPI inhibition of FVIIa/TF [9]: 0.24 µM | TFPI fold resistance (fold vs wild-type FVIIa) [9]: 3.3 | pIC50 of TFPI inhibition of FVIIa/TF [9]: 6.6 | IC50 of TFPI inhibition of FVIIa/TF [10]: 0.44 µM | TFPI fold resistance (fold vs wild-type FVIIa) [10]: 6.1 | pIC50 of TFPI inhibition of FVIIa/TF [10]: 6.4 | IC50 of TFPI inhibition of FVIIa/TF [11]: 0.2 µM | TFPI fold resistance (fold vs wild-type FVIIa) [11]: 2.8 | pIC50 of TFPI inhibition of FVIIa/TF [11]: 6.7 | IC50 of TFPI inhibition of FVIIa/TF [12]: 0.3 µM | TFPI fold resistance (fold vs wild-type FVIIa) [12]: 4.1 | pIC50 of TFPI inhibition of FVIIa/TF [12]: 6.5 | IC50 of TFPI inhibition of FVIIa/TF [13]: 0.028 µM | TFPI fold resistance (fold vs wild-type FVIIa) [13]: 0.4 | pIC50 of TFPI inhibition of FVIIa/TF [13]: 7.6 | IC50 of TFPI inhibition of FVIIa/TF [14]: 0.032 µM | TFPI fold resistance (fold vs wild-type FVIIa) [14]: 0.4 | pIC50 of TFPI inhibition of FVIIa/TF [14]: 7.5 | IC50 of TFPI inhibition of FVIIa/TF [15]: 0.013 µM | TFPI fold resistance (fold vs wild-type FVIIa) [15]: < 0.3 | pIC50 of TFPI inhibition of FVIIa/TF [15]: 7.9 | IC50 of TFPI inhibition of FVIIa/TF [16]: 0.066 µM | TFPI fold resistance (fold vs wild-type FVIIa) [16]: 0.9 | pIC50 of TFPI inhibition of FVIIa/TF [16]: 7.2 | IC50 of TFPI inhibition of FVIIa/TF [17]: 0.043 µM | TFPI fold resistance (fold vs wild-type FVIIa) [17]: 0.6 | pIC50 of TFPI inhibition of FVIIa/TF [17]: 7.4 | TFPI fold resistance (fold vs wild-type FVIIa) [18]: < 0.3 | TFPI fold resistance (fold vs wild-type FVIIa) [19]: 0.3 | TFPI fold resistance (fold vs wild-type FVIIa) [20]: < 0.3 | TFPI fold resistance (fold vs wild-type FVIIa) [21]: < 0.3 | TFPI fold resistance (fold vs wild-type FVIIa) [22]: < 0.3 | TFPI fold resistance (fold vs wild-type FVIIa) [23]: < 0.3 | TFPI fold resistance (fold vs wild-type FVIIa) [24]: < 0.3 | TFPI fold resistance (fold vs wild-type FVIIa) [25]: < 0.3 | TFPI fold resistance (fold vs wild-type FVIIa) [26]: < 0.3 | TFPI fold resistance (fold vs wild-type FVIIa) [27]: 39 | TFPI fold resistance (fold vs wild-type FVIIa) [28]: 18.9 | TFPI fold resistance (fold vs wild-type FVIIa) [29]: 2.1 | TFPI fold resistance (fold vs wild-type FVIIa) [30]: 1.7 | TFPI fold resistance (fold vs wild-type FVIIa) [31]: 3.2 | TFPI fold resistance (fold vs wild-type FVIIa) [32]: 1.5 | TFPI fold resistance (fold vs wild-type FVIIa) [33]: 1.2 | TFPI fold resistance (fold vs wild-type FVIIa) [34]: 0.6 | TFPI fold resistance (fold vs wild-type FVIIa) [35]: 10.7 | IC50 of TFPI inhibition of FVIIa/TF [36]: 0.088 µM | TFPI fold resistance (fold vs wild-type FVIIa) [36]: 1 | pIC50 of TFPI inhibition of FVIIa/TF [36]: 7.1
